What all share (conditions): one partner purified
Test [1] deals with T1, human CCR7 A315G fused to YPet (human, UniProt P32248 25-378, A315G).
T1 construct: chemokine receptor CCR7, human (hCCR7), point mutant A315G; also called hCCR7-YPet A315G; source: HeLa, transiently transfected (pcDNA3 hCCR7-YPet A315G), on cells; not shown: YPet, C-terminal, kept
T1 sequence (looked up): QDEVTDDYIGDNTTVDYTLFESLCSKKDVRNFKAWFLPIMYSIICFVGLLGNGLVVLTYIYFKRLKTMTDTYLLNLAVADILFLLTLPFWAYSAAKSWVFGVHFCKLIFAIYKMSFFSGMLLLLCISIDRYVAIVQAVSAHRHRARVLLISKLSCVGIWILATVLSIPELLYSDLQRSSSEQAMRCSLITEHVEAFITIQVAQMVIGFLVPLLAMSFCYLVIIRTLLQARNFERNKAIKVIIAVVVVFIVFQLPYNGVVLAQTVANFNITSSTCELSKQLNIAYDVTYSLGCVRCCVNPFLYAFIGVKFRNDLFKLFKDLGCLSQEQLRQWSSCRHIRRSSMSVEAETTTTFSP
Nature of the test: flow cytometry on cells; HeLa cells transiently expressing YPet-tagged CCR7 variants incubated at 4 °C for indicated times with 25 nM CCL19-S6^649P1, washed, MFI (chemokine binding).

Test [2] has as its target T2, human CCR7 L325S fused to YPet (human, UniProt P32248 25-378, L325S).
T2 construct: chemokine receptor CCR7, human (hCCR7), point mutant L325S; also called hCCR7-YPet L325S; source: HeLa, transiently transfected (pcDNA3 hCCR7-YPet L325S), on cells; not shown: YPet, C-terminal, kept
T2 sequence (looked up): T1 sequence (looked up) with G291A, L301S
Described as above.

Test [3] deals with T3, human CCR7 SNP V317I fused to YPet (human, UniProt P32248 25-378, V317I).
T3 construct: chemokine receptor CCR7, human (hCCR7), naturally occurring SNP V317I; also called CCR7 V317I; hCCR7-YPet V317I; source: HeLa, transiently transfected (pcDNA3 hCCR7-YPet V317I), on cells; not shown: YPet, C-terminal, kept
T3 sequence (looked up): T1 sequence (looked up) with G291A, V293I
Description: flow cytometry on cells; competition: HeLa cells transiently expressing YPet-tagged CCR7 variants, 37 °C, 30 min, 25 nM CCL19-S6^649P1 with graded concentrations of native unlabelled hCCL19; MFI (binding and uptake).

In test [4] the target is T1, human CCR7 A315G fused to YPet. The description is as above.
The target in test [5] is T2, human CCR7 L325S fused to YPet. The description is as above.
Test [6] concerns the target T4, human CCR7 wild-type fused to YPet (hCCR7-YPet) (human, UniProt P32248 25-378).
T4 construct: chemokine receptor CCR7, human (hCCR7); also called CCR7 WT; wild-type CCR7; source: HeLa, transiently transfected (pcDNA3 hCCR7-YPet), on cells; not shown: YPet, C-terminal, kept
T4 sequence (looked up): T1 sequence (looked up) with G291A
The test is described as above.

Where a chain is given by its changes, count along the chain named.

B1: human CCL19-S6 site-specifically labelled with Dy649P1 (hCCL19-S6^649P1) (ligand, UniProt Q99731 22-98, looked up)
chain: GTNDAEDCCLSVTQKPIPGYIVRNFHYLLIKDGCRVPAVVFTTLRGRQLCAPPDQPWVERIIQRLQRTSAKMKRRSS
modifications: Dy649P1 covalently and site-specifically attached (CoA-Dy649P1, SFP synthase)
For B1, the “fold fluorescence of bound CCL19-S6^649P1 against wild-type CCR7” value in test [1] and in test [2] was approximately 2 fold each time.

B2: native human CCL19 (hCCL19), unlabelled (ligand, UniProt Q99731 22-98, looked up)
chain: B1 chain
Turning to B2, the Kd is approximately 31 nM in test [3], approximately 10 nM in test [4], approximately 7 nM in test [5] and approximately 29 nM in test [6].

Source of the values: paper PMC9101108, “Shifting CCR7 towards Its Monomeric Form Augments CCL19 Binding and Uptake” (Cells, 2022).
